Consider 14 molecules from patent US6979727B2, “Recombinant conglutinin and producing method thereof” (Fuso Pharmaceutical Industries, Ltd., priority 1995, dated 2005).

The target in one data set is T1, Recombinant Conglutinin (Bos taurus, UniProt P23805).
T1 sequence (P23805 211-371): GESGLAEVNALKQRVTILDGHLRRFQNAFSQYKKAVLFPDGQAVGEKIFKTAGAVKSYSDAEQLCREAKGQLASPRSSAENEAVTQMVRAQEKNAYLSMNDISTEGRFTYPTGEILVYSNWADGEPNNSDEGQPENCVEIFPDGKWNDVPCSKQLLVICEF
Kind of data set: Sugar inhibition of binding to mannan-coated plates (ELISA).

Data set [1] deals with iC3b on sheep erythrocyte cells (horse (from fresh horse serum)). Put plainly: cell-based or functional assay.
The test system of data set [2] is Influenza A viruses. Type of data set: cell-based, Influenza A virus.
The test system of data set [3] is Influenza A viruses. Kind of data set: HI activity of collectins (method of Example 5). Type of data set: cell-based, Influenza A virus. To be noted: Table 4.
For data set [4], the system named is Influenza A viruses. Put plainly: Neutralization activity of collectins (method of Example 6). Format: cell-based, Influenza A virus.
The test system of the next data set is Hemagglutinin (HA). To be noted: Table 4, Western blotting. A general note: Immunoblotting shows a protein as a band on a membrane.
Data set [5] relates to sheep erythrocyte cells with iC3b. Put plainly: Conglutination activities, microtiter plate assay system. Format: cell-based. To be noted: 1% sheep erythrocyte cells with iC3b, 37° C., veronal buffer. As to the method:
Conglutination activities of the recombinant conglutinin and the native conglutinin were evaluated by Microtiter plate assay system. Sheep erythrocyte cells with iC3b were prepared according to the method of Wakamiya et al., (Biochem. Biophys. Res. Comm., Vol. 187, pp. 1270-1278, 1992). Namely, 1% sheep erythrocyte cells with iC3b were prepared by priming with a mixture of ten-fold diluted fresh horse serum and equivalent amount of anti-Forssmann antibody, and incubated at 37° C. for ten minutes.
50 μl of 1% sheep erythrocyte cells with iC3b and 50 μl of the recombinant conglutinin or 50 μl of the native conglutinin was added to the raw veronal buffer or the veronal buffer containing 30 mM N-acetylglucosamine. Then, they were incubated at 37° C. and the conglutination activities thereon were detected. The lowest concentration of the proteins to cause agglutination is regarded as titer of conglutination, then the results are shown in FIG. 8. In FIG. 8, Lane A is the native conglutinin, Lane B is the recombinant conglutinin and Lane C is the recombinant conglutinin containing 30 mM N-acetylglucosamine. Titer of conglutination on the native conglutinin was 0.16 μg/ml, while that of the recombinant conglutinin was 1.3-2.5 μg/ml.

In a further data set the test system is A/Suita/1/89(H1N1). Put plainly: Hemagglutination Inhibition (HI) with chick's erythrocytes. Format: cell-based, Influenza A virus.
For the next data set, the system named is A/Adachi/1/57(H2N2). Format: cell-based, Influenza A virus.
Data set [6] concerns A/Ibaraki/1/90(H3N2). Put plainly: Hemagglutination Inhibition (HI) with chick's erythrocytes. Format: cell-based, Influenza A virus.
Data set [7] deals with A/Ibaraki/1/90(H3N2). Put plainly: Neutralization activities in MDCK cells, PAP staining. Format: cell-based, Influenza A virus.

A value given as a limit tells only on which side of the number the result lay.

For `OC[C@H]1O[C@@H](O[C@H]2[C@H](O)[C@@H](O)C(O)O[C@@H]2CO)[C@H](O)[C@@H](O)[C@H]1O` (stereo partly drawn) [Lactose], the IC50 at Recombinant Conglutinin is over 100 mM.

As to `CC(=O)N[C@H]1C(O)O[C@H](CO)[C@@H](O)[C@@H]1O` (stereo partly drawn) [N-Acetyl-D-Glucosamine], the 50% inhibitory concentration (IC50) at Recombinant Conglutinin was 0.65 mM.

As for “Native bovine conglutinin (from UniProt P23805 21-371)”, the Titer of conglutination (lowest concentration of the proteins to cause agglutination) in data set [1] was 0.16 µg/mL.

As to “native hMBP: native human mannan-binding protein (hMBP)”, in the data set on Influenza A viruses [2], the “Present Method” value was “+” and the “Viral Growth Inhibition Activity (Minimum Protein Concentration)” value was found to be 0.05 µg/mL. The “area of the infected focus / viral growth” value in the data set with Influenza A viruses [2] (0, 0.25 and 0.5 μg/ml, three days, MDCK cells (FIG. 14)) was “reduced the area of the infected focus in a dose-dependent manner”. Further, in the data set on Influenza A viruses [2] (Table 6, class symbol), the “Viral Growth Inhibition Activity” value is on record as “+”. In addition, the “HI Activity” value in the data set with Influenza A viruses [3] is “+”. Besides, in the data set with Influenza A viruses [4], the “Neutralization Activity (Minimum Protein Concentration)” value was over 5 µg/mL. For the same molecule, in the data set on Influenza A viruses [4] (Table 4), the “Neutralization Activity” value is on record as “−”. In addition, the “Neutralization Activity” value in the data set with Influenza A viruses [4] (Table 5, class symbol) was “−”. Moreover, the “HA Binding” value in the data set with Hemagglutinin (HA) is “−”.

Consider `C[C@@H](O)[C@H](O)[C@H](O)[C@@H](O)C=O` [D-Fucose], for which the IC50 on Recombinant Conglutinin was 55.3 mM.

For the molecule `O=C[C@H](O)[C@@H](O)[C@@H](O)[C@H](O)CO` [Galactose], on Recombinant Conglutinin, the IC50 came to 46.8 mM.

Turning to `OC[C@H]1O[C@H](O[C@H]2[C@H](O)[C@@H](O)[C@H](O)O[C@@H]2CO)[C@H](O)[C@@H](O)[C@@H]1O` [Maltose], the half-maximal inhibitory concentration (IC50) on Recombinant Conglutinin turned out to be 25.8 mM.

For `O=C[C@@H](O)[C@@H](O)[C@H](O)[C@H](O)CO` [D-Mannose], the IC50 on Recombinant Conglutinin was determined as 12.3 mM.

For the molecule `CC(=O)N[C@@H]1C(O)O[C@H](CO)[C@@H](O)[C@@H]1O` (stereo partly drawn) [N-Acetyl-D-Mannosamine], the IC50 on Recombinant Conglutinin came out at 26.6 mM.

As for `C[C@H](O)[C@@H](O)[C@@H](O)[C@H](O)C=O` [L-Fucose], the half-inhibitory concentration (IC50) on Recombinant Conglutinin was 37.8 mM.

B1: Native Conglutinin: animal lectin of the calcium-dependent mammalian C-type lectin family existing in bovine serum (protein, UniProt P23805 21-371, looked up)
Conglutinin: AEMTTFSQKILANACTLVMCSPLESGLPGHDGQDGRECPHGEKGDPGSPGPAGRAGRPGWVGPIGPKGDNGFVGEPGPKGDTGPRGPPGMPGPAGREGPSGKQGSMGPPGTPGPKGETGPKGGVGAPGIQGFPGPSGLKGEKGAPGETGAPGRAGVTGPSGAIGPQGPSGARGPPGLKGDRGDPGETGAKGESGLAEVNALKQRVTILDGHLRRFQNAFSQYKKAVLFPDGQAVGEKIFKTAGAVKSYSDAEQLCREAKGQLASPRSSAENEAVTQMVRAQEKNAYLSMNDISTEGRFTYPTGEILVYSNWADGEPNNSDEGQPENCVEIFPDGKWNDVPCSKQLLVICEF
Turning to B1, the “Titer of conglutination (lowest concentration of the proteins to cause agglutination)” value in data set [5] worked out at 0.16 µg/mL. In addition, the results for the “Expression Concentration on Hemagglutination Inhibition (HI)” value in the data set on A/Suita/1/89(H1N1), in the data set on A/Adachi/1/57(H2N2) and in the data set on A/Ibaraki/1/90(H3N2) [6] were 0.08 µg/mL, over 5 µg/mL and 0.08 µg/mL, respectively. Also, in the data set with Influenza A viruses [2], the “Present Method” value is “−”. Moreover, the “HI Activity” value in the data set on Influenza A viruses [3] is “+”. In addition, the “Neutralization Titer (concentration to inhibit half (50%) of the infection)” value in the data set on A/Ibaraki/1/90(H3N2) [7] is 0.08 µg/mL. The “Neutralization Activity” value in the data set on Influenza A viruses [4] (Table 4) is “+”. The “HA Binding” value in the data set on Hemagglutinin (HA) is given as “+”.

B2: Bovine Conglutinin: bovine conglutinin of Table 5; native or recombinant not stated (protein, UniProt P23805 21-371, looked up)
Conglutinin: B1 Conglutinin
B2: in the data set with Influenza A viruses [4], the “Neutralization Activity (Minimum Protein Concentration)” value stood at 0.09 µg/mL. The “Neutralization Activity” value in the data set on Influenza A viruses [4] (Table 5, class symbol) is “+”.

B3: Human Surfactant Protein (hSP-D) Native: native human surfactant protein D (protein, UniProt P35247 21-375, looked up)
Pulmonary …: AEMKTYSHRTMPSACTLVMCSSVESGLPGRDGRDGREGPRGEKGDPGLPGAAGQAGMPGQAGPVGPKGDNGSVGEPGPKGDTGPSGPPGPPGVPGPAGREGPLGKQGNIGPQGKPGPKGEAGPKGEVGAPGMQGSAGARGLAGPKGERGVPGERGVPGNTGAAGSAGAMGPQGSPGARGPPGLKGDKGIPGDKGAKGESGLPDVASLRQQVEALQGQVQHLQAAFSQYKKVELFPNGQSVGEKIFKTAGFVKPFTEAQLLCTQAGGQLASPRSAAENAALQQLVVAKNEAAFLSMTDSKTEGKFTYPTGESLVYSNWAPGEPNDDGGSEDCVEIFTNGKWNDRACGEKRLVVCEF
B3: the “Present Method” value in the data set on Influenza A viruses [2] is reported as “−”. The “HI Activity” value in the data set on Influenza A viruses [3] was “+”. The “Neutralization Activity” value in the data set on Influenza A viruses [4] (Table 4) was “+”. Also, the “HA Binding” value in the data set with Hemagglutinin (HA) is recorded as “+”.

B4: Human Surfactant Protein (hSP-D) Recombinant: recombinant human surfactant protein D (protein, UniProt P35247 21-375, looked up)
Pulmonary …: B3 Pulmonary …
Take B4: in the data set on Influenza A viruses [2], the “Present Method” value is given as “−”. The “HI Activity” value with Influenza A viruses [3] is “−”. The “Neutralization Activity” value in the data set on Influenza A viruses [4] (Table 4) is given as “−”.

What is called IC50 is the concentration at which inhibition is half-maximal.
